In the data set the test system is MS2 coat protein. The experiment in a line: apparent KD of MS2 coat protein; designed switch direction (-1 OFF switch, 1 ON switch): -1; higher = weaker reporter binding. The essentials: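 Each step of the titration lasted 0.8–1.5 h at the lowest concentration and 10–20 min at the highest. The protein, SNAP-549-labelled MS2 coat protein, went from 0.7 or 1.5 nM doubling to 3 µM over RNA switches transcribed on Illumina chips by stalled E. coli RNA polymerase. Normalised cluster fluorescence was curve-fitted, and the per-design median over clusters is given as apparent KD.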

[1] abbreviates: Eterna round: R95, input ligand: FMN 200 uM.
The mark [2] stands for this setting: Eterna round: R95, input ligand: microRNA oligo, concentration not stated.
[3] abbreviates: Eterna round: R95, input ligand: none.
The mark [4] stands for this setting: input ligand: microRNA oligo, concentration not stated.

Turning to “GAUUAUGCGAGCUUUAGGGACAUGAGGAUCACCCAUGUUCGUCUUAUUGGUCUGGAUGCACUGACAUACCUAAAUCU [JMF 82] (puzzle: Sensor v3, turn-off variant 1)”, the “apparent KD of MS2 coat protein” value stood at 17.1 nM under setting [1], 25.5 nM under setting [2] and 21.5 nM under setting [3].

In the case of “GAUUGAGAGCAGGAUAUAUUCCUGAUGUAUGAAGUAGAAGGGCUCACAUGAGGAUCACCCAUGUGAUCCUGAAA [Mat - Exclusion 6 - Eli Mod - D3] (Eterna round: R97, puzzle: Exclusion 6)”, the “apparent KD of MS2 coat protein” value amounted to 13.8 nM (input ligand: FMN 200 uM) and 14 nM (input ligand: none).

As for “GAUUGAUAAGGAUAUACAUGAGGAUCACCCAUGUGCUUCAGCUAGGAGACUAGCAUUGGUAGAAGGUAUUAAUC [Mod of lroppy 12 - Jieux - Exclusion 3] (Eterna round: R97, puzzle: Exclusion 3)”, the “apparent KD of MS2 coat protein” value runs as follows: (input ligand: FMN 200 uM) 51.8 nM; (input ligand: none) 21.8 nM.

With “GAUUUAGAGCAGGAUAUCAUAGAAAUGUAUGAAUGAGAAGGGCUCACAUGAGGAUCACCCAUGUGGUCCUAGAU [JL Dibiri mod 20] (Eterna round: R96, puzzle: Exclusion 6)”, under setting [4], the “apparent KD of MS2 coat protein” value came out at 21.6 nM.

With “GAUUUAGAGCAGGAUAUCAUAGAAAUGUAUGAAUGAGAAGGGCUCACAUGAGGAUCACCCAUGUGGUCCUAGAU [JL Dibiri mod 20] (puzzle: Exclusion 6)”, the “apparent KD of MS2 coat protein” value is 144 nM under setting [1], 23.5 nM under setting [2] and 20.3 nM under setting [3].

With “GAUUUAGAGCAGGAUAUCAUAGAAUUAUAUGAAUGAGAAGGGCUCACAUGAGGAUCACCCAUGUGGUCCUAGAU [JL Dibiri mod 22] (Eterna round: R96, puzzle: Exclusion 6)”, the “apparent KD of MS2 coat protein” value stood at 235 nM (input ligand: FMN 200 uM), 21.7 nM under setting [4] and 25.4 nM (input ligand: none).

On to “GAUUUAGAGCAGGAUAUCAUAGAAUUAUAUGAAUGAGAAGGGCUCACAUGAGGAUCACCCAUGUGGUCCUAGAU [JL Dibiri mod 22] (puzzle: Exclusion 6)”, for which the “apparent KD of MS2 coat protein” value under setting [2] was 22.8 nM.

Take “GCAACUACGGAUCUCAUCAACAUGAGGAUCACCCAUGUAGAAUGCGUACAAGCUUUUUGUUCUGGCAUCCCAUAGUC [Eternabot (L2) Solution 35] (Eterna round: R97, puzzle: Sensor, turn-off variant 1)”: the “apparent KD of MS2 coat protein” value (input ligand: FMN 200 uM) amounted to 63 nM and the “apparent KD of MS2 coat protein” value (input ligand: none) amounted to 65.3 nM.

Consider “GCAAGAAUAGGAUAUACACCAUGCCAGCUUCUAUACAACGCACAUGAGGAUCACCCAUGUAGAAGGGUUCUCUG [Exclusion-2-#12] (Eterna round: R97, puzzle: Exclusion 2)”, for which the “apparent KD of MS2 coat protein” value was found to be 225 nM (input ligand: FMN 200 uM) and 262 nM (input ligand: none).

For the sequence “GCAAGCUUAGGAUAUACAUGAGGAUCACCCAUGUCGUGAAUUUCGAUGCUUAAUGGCGGUAGAAGGAGGCUUGA [Eternabot (L2) Solution 12] (Eterna round: R97, puzzle: Exclusion 3)”, the “apparent KD of MS2 coat protein” value (input ligand: FMN 200 uM) turned out to be 31.2 nM and the “apparent KD of MS2 coat protein” value (input ligand: none) came out at 18.8 nM.

On to “GCAAGCUUUUAGGUUUUCAACAUGAGGAUCACCCAUGUUCGUCUUGUGCUCGGGCUUGGGCGGUGUCCGGGUUUGGG [JL TOV1 3.75 sellena mod] (Eterna round: R97, puzzle: Sensor, turn-off variant 1)”, for which the “apparent KD of MS2 coat protein” value reads like this: (input ligand: FMN 200 uM) 40.4 nM; (input ligand: none) 43.7 nM.

As to “GCAAGCUUUUCGAUCCUCUACAUGAGGAUCACCCAUGUGCUCGAAUUGUUUGGUACUAUCACGAAAGUGAUAGUACA [Sensor, turn off variant 1 v.4] (Eterna round: R97, puzzle: Sensor, turn-off variant 1)”, the “apparent KD of MS2 coat protein” value (input ligand: FMN 200 uM) was found to be 936 nM and the “apparent KD of MS2 coat protein” value (input ligand: none) came out at 1150 nM.

“GCAAGCUUUUGCUCGUCUUACAUGAGGAUCACCCAUGUCGGGCCCGGCCGUCGCGGCCGGGCCCGCCGGGCGCCGGG [-41.9, -69.5 kcal, A 10%] (Eterna round: R97, puzzle: Sensor, turn-off variant 1)”: the “apparent KD of MS2 coat protein” value (input ligand: FMN 200 uM) worked out at 53.5 nM and the “apparent KD of MS2 coat protein” value (input ligand: none) stood at 64.1 nM.

The record behind these values is the supplement of paper PMC9170038.
